Results reported in patent US20240343817A1 (STAIDSON BEIJING BIOPHARMACEUTICALS, published 2024).

Biological target: human CD40 on cells (human, UniProt P25942 21-277)
Assay: cell-based or functional assay

Chain of human CD40 on cells (P25942 21-277 limits assumed): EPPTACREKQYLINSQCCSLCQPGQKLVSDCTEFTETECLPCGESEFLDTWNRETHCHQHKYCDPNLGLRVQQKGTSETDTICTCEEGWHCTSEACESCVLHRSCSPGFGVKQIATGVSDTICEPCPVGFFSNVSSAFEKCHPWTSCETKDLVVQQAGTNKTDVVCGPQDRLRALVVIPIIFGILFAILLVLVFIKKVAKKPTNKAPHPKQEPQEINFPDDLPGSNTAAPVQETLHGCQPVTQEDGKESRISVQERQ

Row | Binder | IC50, HEK-Blue CD40L NF-κB activation assay (SEAP), antibody as human IgG4 [µg/mL]
1 | D22 (antibody, human IgG4, V domains shown) VH: QVQLVQSGAEVKKPGASVKVSCKASVYSFTGYTVNWVRQAPGQRLEWMGLINPYTGGTTYNQKFKGRVTLTIDKSASTAYMELSSLRSEDTAVYYCASSYYSKPYAMDYWGQGTLVTVSS VL: EIVMTQSPATLSVSPGERATLSCKASQNVHTRVAWYQQKPGQAPRLLIYLASDRRTGIPARFSGSGSGTEFTLTISSLQSEDFAVYYCLQHWTYPLTFGQGTKVEIK | 0.0219
2 | D23 (antibody, human IgG4, V domains shown) VH: QVQLVQSGAEVKKPGASVKVSCKASVYGFTGYTVNWVRQAPGQRLEWMGLINPYNGGTTYNQKFKGRVTLTIDKSASTAYMELSSLRSEDTAVYYCASSYYSNPYANDYWGQGTLVTVSS VL: EIVMTQSPATLSVSPGERATLSCKASQNVHTAVAWYQQKPGQAPRLLIYLRSDRRTGIPARFSGSGSGTEFTLTISSLQSEDFAVYYCLQAWNYPLTFGQGTKVEIK | 0.0169
3 | D24 (antibody, human IgG4, V domains shown) VH: QVQLVQSGAEVKKPGASVKVSCKASVYSFTGYTVNWVRQAPGQRLEWMGLINPKNGGTTYNQKFKGRVTLTIDKSASTAYMELSSLRSEDTAVYYCASSLYSNPYAMDYWGQGTLVTVSS VL: EIVMTQSPATLSVSPGERATLSCKASQNVHTRVAWYQQKPGQAPRLLIYLASDRRTGIPARFSGSGSGTEFTLTISSLQSEDFAVYYCLQHWNYPLTFGQGTKVEIK | 0.0164
4 | D25 (antibody, human IgG4, V domains shown) VH: QVQLVQSGAEVKKPGASVKVSCKASVYSFTGYVVNWVRQAPGQRLEWMGLINPYNGGTTYNQKFKGRVTLTIDKSASTAYMELSSLRSEDTAVYYCASSYYSNPYAMDYWGQGTLVTVSS VL: EIVMTQSPATLSVSPGERATLSCKASQNVHTAVAWYQQKPGQAPRLLIYLASDRRTGIPARFSGSGSGTEFTLTISSLQSEDFAVYYCLQHWNYPLTFGQGTKVEIK | 0.0273
5 | D27 (antibody, human IgG4, V domains shown) VH: QVQLVQSGAEVKKPGASVKVSCKASVYSFTGYTVNWVRQAPGQRLEWMGLIVPYNGGTTYNQKFKGRVTLTIDKSASTAYMELSSLRSEDTAVYYCASSGYSNPYAMDYWGQGTLVTVSS VL: EIVMTQSPATLSVSPGERATLSCKASQNVHTNVAWYQQKPGQAPRLLIYLASDRRTGIPARFSGSGSGTEFTLTISSLQSEDFAVYYCLQHWNYPLTFGQGTKVEIK | 0.0298
6 | D28 (antibody, human IgG4, V domains shown) VH: QVQLVQSGAEVKKPGASVKVSCKASVYSFTGYTVNWVRQAPGQRLEWMGLINPYSGGTTYNQKFKGRVTLTIDKSASTAYMELSSLRSEDTAVYYCASSYYSRPYAMDYWGQGTLVTVSS VL: EIVMTQSPATLSVSPGERATLSCKASQNVHTRVAWYQQKPGQAPRLLIYLASDRRTGIPARFSGSGSGTEFTLTISSLQSEDFAVYYCLQHWNSPLTFGQGTKVEIK | 0.0124
7 | D29 (antibody, human IgG4, V domains shown) VH: QVQLVQSGAEVKKPGASVKVSCKASVYSFTGYTVNWVRQAPGQRLEWMGLINPMNGGTTYNQKFKGRVTLTIDKSASTAYMELSSLRSEDTAVYYCASSYYSNPYAGDYWGQGTLVTVSS VL: EIVMTQSPATLSVSPGERATLSCKASQNVHTRVAWYQQKPGQAPRLLIYLASDRRTGIPARFSGSGSGTEFTLTISSLQSEDFAVYYCLQHWNRPLTFGQGTKVEIK | 0.0342
8 | D30 (antibody, human IgG4, V domains shown) VH: QVQLVQSGAEVKKPGASVKVSCKASVYSFTGYTVNWVRQAPGQRLEWMGLINPYNGGTWYNQKFKGRVTLTIDKSASTAYMELSSLRSEDTAVYYCASSMYSNPYAMDYWGQGTLVTVSS VL: EIVMTQSPATLSVSPGERATLSCKASQNVHTRVAWYQQKPGQAPRLLIYLASDRRTGIPARFSGSGSGTEFTLTISSLQSEDFAVYYCLQHWNYPLTFGQGTKVEIK | 0.018
9 | D31 (antibody, human IgG4, V domains shown) VH: QVQLVQSGAEVKKPGASVKVSCKASVYSFTGYTVNWVRQAPGQRLEWMGLINPYNGGTSYNQKFKGRVTLTIDKSASTAYMELSSLRSEDTAVYYCASSYYSNPYAADYWGQGTLVTVSS VL: EIVMTQSPATLSVSPGERATLSCKASQNVHTRVAWYQQKPGQAPRLLIYLASDRRTGIPARFSGSGSGTEFTLTISSLQSEDFAVYYCLQHWNYPLTFGQGTKVEIK | 0.0139
10 | D32 (antibody, human IgG4, V domains shown) VH: QVQLVQSGAEVKKPGASVKVSCKASVYSFTGYTVNWVRQAPGQRLEWMGLINPYHGGTTYNQKFKGRVTLTIDKSASTAYMELSSLRSEDTAVYYCASSSYSNPYAMDYWGQGTLVTVSS VL: EIVMTQSPATLSVSPGERATLSCKASQNVHTRVAWYQQKPGQAPRLLIYLASDRRTGIPARFSGSGSGTEFTLTISSLQSEDFAVYYCLQHWNYPLTFGQGTKVEIK | 0.0164
11 | D34 (antibody, human IgG4, V domains shown) VH: QVQLVQSGAEVKKPGASVKVSCKASVYSFTGYTVNWVRQAPGQRLEWMGLINPYNGGTTYNQKFKGRVTLTIDKSASTAYMELSSLRSEDTAVYYCASSYYSRPYAMDYWGQGTLVTVSS VL: EIVMTQSPATLSVSPGERATLSCKASQNVHTRVAWYQQKPGQAPRLLIYLASDRRTGIPARFSGSGSGTEFTLTISSLQSEDFAVYYCLQHWSYPLTFGQGTKVEIK | 0.0338
12 | D35 (antibody, human IgG4, V domains shown) VH: QVQLVQSGAEVKKPGASVKVSCKASVYSFTGYLVNWVRQAPGQRLEWMGLINPYNGGTTYNQKFKGRVTLTIDKSASTAYMELSSLRSEDTAVYYCASSYYSNPYAMDYWGQGTLVTVSS VL: EIVMTQSPATLSVSPGERATLSCKASQNVHTAVAWYQQKPGQAPRLLIYLASDRRTGIPARFSGSGSGTEFTLTISSLQSEDFAVYYCLQHWNYPLTFGQGTKVEIK | 0.0233
13 | D36 (antibody, human IgG4, V domains shown) VH: QVQLVQSGAEVKKPGASVKVSCKASVYSFTGYTVNWVRQAPGQRLEWMGLINPYNGGTTYNQKFKGRVTLTIDKSASTAYMELSSLRSEDTAVYYCASSRYSNPYAMDYWGQGTLVTVSS VL: EIVMTQSPATLSVSPGERATLSCKASQNVHTHVAWYQQKPGQAPRLLIYLASDRRTGIPARFSGSGSGTEFTLTISSLQSEDFAVYYCLQHWNYPLTFGQGTKVEIK | 0.0212
14 | D37 (antibody, V domains shown) VH: QVQLVQSGAEVKKPGASVKVSCKASVYSFTGYTVNWVRQAPGQRLEWMGLIAPYNGGTTYNQKFKGRVTLTIDKSASTAYMELSSLRSEDTAVYYCALSYYSNPYAMDYWGQGTLVTVSS VL: EIVMTQSPATLSVSPGERATLSCKASQNVHTRVAWYQQKPGQAPRLLIYLASDRRTGIPARFSGSGSGTEFTLTISSLQSEDFAVYYCLQHWNYPLTFGQGTKVEIK | 0.0211
15 | D38 (antibody, human IgG4, V domains shown) VH: QVQLVQSGAEVKKPGASVKVSCKASVYSFTGYTVNWVRQAPGQRLEWMGMINPYNGGTTYNQKFKGRVTLTIDKSASTAYMELSSLRSEDTAVYYCASSYYSVPYAMDYWGQGTLVTVSS VL: EIVMTQSPATLSVSPGERATLSCKASQNVHTRVAWYQQKPGQAPRLLIYLASDRRTGIPARFSGSGSGTEFTLTISSLQSEDFAVYYCLQHWNYPLTFGQGTKVEIK | 0.0156
16 | D39 (antibody, human IgG4, V domains shown) VH: QVQLVQSGAEVKKPGASVKVSCKASVYSFTGYTVNWVRQAPGQRLEWMGLINPYNGGTTYNQKFKGRVTLTIDKSASTAYMELSSLRSEDTAVYYCASSYYSNPYAQDYWGQGTLVTVSS VL: EIVMTQSPATLSVSPGERATLSCKASQNVHTRVAWYQQKPGQAPRLLIYLASDRRTGIPARFSGSGSGTEFTLTISSLQSEDFAVYYCLQHWNYPLTFGQGTKVEIK | 0.03
17 | D40 (antibody, human IgG4, V domains shown) VH: QVQLVQSGAEVKKPGASVKVSCKASVYSFTGYTVNWVRQAPGQRLEWMGLINPYTGGTTYNQKFKGRVTLTIDKSASTAYMELSSLRSEDTAVYYCASSYWSNPYAMDYWGQGTLVTVSS VL: EIVMTQSPATLSVSPGERATLSCKASQNVHTRVAWYQQKPGQAPRLLIYLASDRRTGIPARFSGSGSGTEFTLTISSLQSEDFAVYYCLQHWNYPLTFGQGTKVEIK | 0.0142
18 | D41 (antibody, human IgG4, V domains shown) VH: QVQLVQSGAEVKKPGASVKVSCKASVYSFTGYTVNWVRQAPGQRLEWMGLINPYSGGTTYNQKFKGRVTLTIDKSASTAYMELSSLRSEDTAVYYCASSPYSNPYAMDYWGQGTLVTVSS VL: EIVMTQSPATLSVSPGERATLSCKASQNVHTRVAWYQQKPGQAPRLLIYLASDRRTGIPARFSGSGSGTEFTLTISSLQSEDFAVYYCLQHWNAPLTFGQGTKVEIK | 0.0194
19 | D43 (antibody, human IgG4, V domains shown) VH: QVQLVQSGAEVKKPGASVKVSCKASVYSFTGYTVNWVRQAPGQRLEWMGLINPTNGGTSYNQKFKGRVTLTIDKSASTAYMELSSLRSEDTAVYYCASSYYSNPYASDYWGQGTLVTVSS VL: EIVMTQSPATLSVSPGERATMSCKASQNVHTRVAWYQQKPGQAPRLLIYLASDRRTGIPARFSGSGSGTEFTLTISSLQSEDFAVYYCLQHWNYPLTFGQGTKVEIK | 0.0168
20 | D44 (antibody, human IgG4, V domains shown) VH: QVQLVQSGAEVKKPGASVKVSCKASVYSFTGYTVNWVRQAPGQRLEWMGLINPYNGGTTYNQKFKGRVTLTIDKSASTAYMELSSLRSEDTAVYYCASSYYSLPYAMDYWGQGTLVTVSS VL: EIVMTQSPATLSVSPGERATLSCKASQNVHTRVAWYQQKPGQAPRLLIYLASDRRTGIPARFSGSGSGTEFTLTISSLQSEDFAVYYCLQHWNYPLTFGQGTKVEIK | 0.0201
21 | D45 (antibody, human IgG4, V domains shown) VH: QVQLVQSGAEVKKPGASVKVSCKASVYSFTGYTVNWVRQAPGQRLEWMGLINPYNGGTSYNQKFKGRVTLTIDKSASTAYMELSSLRSEDTAVYYCASSIYSNPYAMDYWGQGTLVTVSS VL: EIVMTQSPATLSVSPGERATLSCKASQNVHTRVAWYQQKPGQAPRLLIYLASDRRTGIPARFSGSGSGTEFTLTISSLQSEDFAVYYCLQHWNQPLTFGQGTKVEIK | 0.0157
